The record followed here is patent US20260199576A1 (KYOTO UNIVERSITY, published 2026).

For orientation: Kd means a measure of binding affinity in units of concentration.

B1: UC antibody 3 (antibody, V domains shown)
VH: QVQLVESGGGVVQPGRSLRVSCAASGFTFSIYGMHWVRQAPGKGLEWVAVISSDGTNQYYADSVKGRFTISRDNSNNTVYLQMNSLGGEDTAVYYCAKDRGRRGDSGWYRHFDYWGQGTLVTVSS
VL: QSVLTQPPSVSAAPGQKVTISCSGSSSNNGNNYVSWYQQVPGTAPKLLIYDNNKRPSGIPDRFSGSKSGTSATLGITGLQTGDEADYYCGTWDSSLSAVVFGGGTKLTVL
notes: Human monoclonal IgG from a UC patient, expressed in CHO cells
B2: UC antibody 8 (antibody, V domains shown)
VH: QVQLVESGGGVVQPGRSLRLSCAASGFTFSSYAMHWVRQAPGKGLEWVAFISYDGINKYYADSVKGRFTISRDNPKDTLYLQMNSLRAEDTAVYYCAKVIPRIRGSGDKAGIKDYYYYGMDVWGRGTTVTVSS
VL: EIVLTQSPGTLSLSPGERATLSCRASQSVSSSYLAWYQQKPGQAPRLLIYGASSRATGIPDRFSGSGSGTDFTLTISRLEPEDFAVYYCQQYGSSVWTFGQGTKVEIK
notes: as for B1
B3: UC antibody 9 (antibody, V domains shown)
VH: QVQLVESGGGVVQPGRSLRLSCAASGFTFSSYGMHWVRQAPGKGLEWVAFISYDGINKYYADSVKGRFTISRDNSKDTLYLQMNSLRAEDTAVYYCAKVIPRIRGSGDKAGIKDYYYYGMDVWGQGTTVTVSS
VL: QSVLTQPPSVSAAPGQKVTISCSGSSSNIGNNYVSWYQQLPGTAPKLLIYDNNKRPSGIPDRFSGSKSGTSATLGITGLQTGDEADYYCGTWDSSLSAVVFGGGTKLTVL
notes: as for B1
B4: UC antibody 7 (antibody, V domains shown)
VH: VQLVESGGGVVQPGRSLRLSCAASGFTFSSYGMHWVRQAPGKGLEWVAFISYDGINKYYADSVKGRFTISRDNSKDTLYLQMNSLRAEDTAVYYCAKVIPRIRGSGDKAGIKDYYYYGMDVWGQGTTVTVSS
VL: EIVLTQSPATLSLSPGERATLSCRASQSVSSYLAWYQQKPGQAPRLLIYDASNRATGIPARFSGSGSGTDFTLTISSLEPEDFAVYYCQQRSNWLTFGGGTKVEIK
notes: as for B1
B5: UC antibody 2 (antibody, V domains shown)
VH: EVQLVESGGGLVKPGGSLRVSCVVSGFTITNAWMSWVRQAPGKGLEWVGRSKSKTDGGTTDYIAPVKGRFTISRDDSKNTLYLEMNSLKTEDTAVYYCATDRPLKLRGRDYNYYVMDVWGQGTTVTVSS
VL: DIQMTQSPSSLSASVGDRVTITCRASQSIARSLNWYQQKPGKAPNLLIYAASTLQSGVPSRFSGSGSGTDFTLTIGSLQPEDFATYSCQQSSSSPLTFGGGTRVEIK
notes: as for B1
B6: UC antibody 5 (antibody, V domains shown)
VH: QVQLVQSGAEVKKPGASVKVSCKASGHTFSSFGISWVRQAPGQGLEWMGWISAYNGNTNSAQKFQGRVTMTTDTSTSTAYMELRSLRSDDTAVYYCARDRGFRGDTAMIKGGMDVWGQGTTVTVSS
VL: VLTQPPSVSVSPGQTASITCSGDKLGDKYACWYQQKSGQAPVLVIYQDSKRPSGIPERFSGSNSGNTATLTISGTQAMDEADYYCQAWDSSTALVFGGGTKLTVL
notes: as for B1
B7: UC antibody 6 (antibody, V domains shown)
VH: QVQLVQSGAEVKKPGASVKVSCKASGHTFSSFGISWVRQAPGQGLEWMGWISAYNGNTNSAQKFQGRVTMTTDTSTSTAYMELRSLRSDDTAVYYCARDRGFRGDTAMIKGGMDVWGQGTTVTVSS
VL: QSVLTQPPSVSGAPGQRVTISCTGSSSTIGANNDVHWYQQLPGTAPKLLIYGNKNRPSGVSDRFSGSKSGTSASLAITGLQAEDEADYYCQSYDSSLSDLYVFGTGTKVTVL
notes: as for B1
B8: PSC antibody 1 (antibody, V domains shown)
VH: QVQLVQSGAEVKKPGASVKVSCKASGHTFSSFGISWVRQAPGQGLEWMGWISAYNGNTNSAQKFQGRVTMTTDTSTSTAYMELRSLRSDDTAVYYCARDRGFRGDTAMIKGGMDVWGQGTTVTVSS
VL: QSALTQPASVSGSPGQSITISCTGTSSDVGGYNYVSWYQQHPGKAPQLIIYDVSKRPSGVSNRFSGSRSGNTASLTISGLQAEDEADYYCSSYTSSSTYVFGTGTKVTVL
notes: Human monoclonal IgG from a PSC patient, expressed in CHO cells
B9: UC antibody 4 (antibody, V domains shown)
VH: QVQLVQSGAEVKKPGASVKVSCKASGYTFSSFGISWVRQAPGQGLEWMGWISAYNGNTNSAQKFQGRVTMTTDTSTSTAYMELRSLRSDDTAVYYCARDRGFRGDTAMIKGGMDVWGQGTTVTVSS
VL: SYELTQPPSVSVSPGQTARITCSGDALPKQYAYWYQQKPGQAPVLVIYKDSERPSGIPERFSGSSSGTMATLTISGAQVEDEGDYYCSSTDSNSQRVFGGGTKLTVL
notes: as for B1
B10: Peptide RGDS (peptide)
peptide: RGDS
notes: also called RGD peptide; RGD motif

The target of one test is T1, Biotinylated human integrin αvβ6 (ACROBiosystems, product number IT6-H82E4) (human, UniProt P06756 31-992; P18564 22-707, biotinylated (Avi tag at the C-terminus) ; Biotin on the Avi tag at the C-terminus of the αv chain; the tag is not in the letters.).
T1 construct: Bought heterodimer; also called biotinylated integrin αvβ6; not shown: basic tail on the β6 chain
T1 sequence (P06756 31-992 limits assumed, chain 1 of 2): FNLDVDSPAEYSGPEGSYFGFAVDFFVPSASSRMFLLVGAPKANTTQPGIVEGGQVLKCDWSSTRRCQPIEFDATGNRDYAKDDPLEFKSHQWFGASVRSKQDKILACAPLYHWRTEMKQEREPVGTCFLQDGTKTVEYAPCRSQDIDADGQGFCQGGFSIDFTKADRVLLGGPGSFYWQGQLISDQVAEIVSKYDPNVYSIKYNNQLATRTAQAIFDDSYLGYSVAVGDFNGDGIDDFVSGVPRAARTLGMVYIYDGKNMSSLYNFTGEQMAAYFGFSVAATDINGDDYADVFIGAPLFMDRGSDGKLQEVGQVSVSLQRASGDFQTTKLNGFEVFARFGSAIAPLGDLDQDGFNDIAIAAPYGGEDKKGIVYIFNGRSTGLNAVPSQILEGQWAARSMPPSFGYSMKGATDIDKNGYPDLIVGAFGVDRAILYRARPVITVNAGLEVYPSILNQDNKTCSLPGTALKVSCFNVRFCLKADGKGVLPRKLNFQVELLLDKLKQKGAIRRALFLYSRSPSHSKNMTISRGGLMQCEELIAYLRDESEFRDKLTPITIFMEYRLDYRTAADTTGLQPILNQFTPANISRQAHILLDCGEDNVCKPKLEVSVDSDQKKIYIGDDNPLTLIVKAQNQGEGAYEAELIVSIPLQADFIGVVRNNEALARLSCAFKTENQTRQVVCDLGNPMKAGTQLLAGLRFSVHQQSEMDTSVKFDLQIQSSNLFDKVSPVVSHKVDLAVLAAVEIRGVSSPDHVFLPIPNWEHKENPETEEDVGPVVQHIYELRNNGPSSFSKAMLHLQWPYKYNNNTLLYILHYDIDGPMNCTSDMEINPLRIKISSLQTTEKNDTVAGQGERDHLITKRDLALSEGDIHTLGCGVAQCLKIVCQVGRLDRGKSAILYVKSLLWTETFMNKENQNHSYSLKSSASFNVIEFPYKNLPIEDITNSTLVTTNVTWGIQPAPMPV
T1 sequence (P18564 22-707 limits assumed, chain 2 of 2): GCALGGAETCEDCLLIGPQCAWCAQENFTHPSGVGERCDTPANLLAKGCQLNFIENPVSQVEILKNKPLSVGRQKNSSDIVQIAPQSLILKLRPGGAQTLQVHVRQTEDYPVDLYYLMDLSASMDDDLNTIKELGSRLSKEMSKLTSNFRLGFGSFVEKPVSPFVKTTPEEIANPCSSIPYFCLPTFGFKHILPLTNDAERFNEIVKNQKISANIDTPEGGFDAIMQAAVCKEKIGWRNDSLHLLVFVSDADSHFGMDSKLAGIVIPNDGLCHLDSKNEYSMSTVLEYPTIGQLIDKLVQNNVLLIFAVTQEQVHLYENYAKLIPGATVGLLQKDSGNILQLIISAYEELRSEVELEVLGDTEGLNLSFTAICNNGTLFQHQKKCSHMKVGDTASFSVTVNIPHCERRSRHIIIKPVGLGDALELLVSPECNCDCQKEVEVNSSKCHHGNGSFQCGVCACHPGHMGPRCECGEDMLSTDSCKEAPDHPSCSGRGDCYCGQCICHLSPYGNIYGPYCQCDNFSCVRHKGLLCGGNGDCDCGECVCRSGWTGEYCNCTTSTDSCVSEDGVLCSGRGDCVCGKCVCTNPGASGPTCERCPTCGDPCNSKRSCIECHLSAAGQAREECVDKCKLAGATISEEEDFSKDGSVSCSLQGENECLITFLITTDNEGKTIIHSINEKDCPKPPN
Nature of the test: BLI (Octet RED96), biotinylated integrin αvβ6 on biosensor, antibody in solution. On the procedure:
Next, the binding affinity of the obtained anti-integrin αvβ6 monoclonal antibodies derived from UC or PSC patients was determined. The KD value was measured by biolayer interferometry using Octet RED96 (Sartorius). A 100 nM solution of the antibody, and serially diluted solutions of biotinylated integrin αvβ6 protein in the range of 200 to 6.25 nM were prepared using a buffer containing 20 mM Tris, 150 mM NaCl, 1 mM CaCl₂, 1 mM MgCl₂, 0.1% human serum albumin (014-27604; Fujifilm Wako Pure Chemical Industries, Ltd.) and 0.02% Tween 20 (1610781; Bio-Rad), and added to a 96-well plate (Greiner; 655209) at 200 μL/well. The biotinylated integrin αvβ6 was allowed to bind for 5 minutes to a biosensor (18-5136; Sartorius) soaked in the buffer. After washing of the biosensor, the biosensor was immersed in each antibody solution for 5 minutes (binding reaction). Then, the sensor was immersed in the buffer solution for 1 minute (dissociation reaction). The binding dissociation constant (KD value) between “integrin αvβ6-each monoclonal antibody” was determined using the analysis software (Octet BLI Analysis) attached to the device.
For orientation: Biolayer interferometry detects binding as a change in optical thickness at a sensor tip.
With B1, the Kd was determined as 15 nM.
On the same count and under the same terms, the same measure for B2: 10.6 nM; for B3: 5.96 nM.
The molecule B4 displayed a Kd of 5.18 nM.
On the same count and under the same terms, the same measure for B5: 1.95 nM; for B6: 8.25 nM.
The same measure, in the same setting: for B7 the value was 20.8 nM; for B8, 8.91 nM.
Still for that read-out and setting: for B9 the value was 3.15 nM.

The target of the next test is T2, human integrin αvβ6 (ACROBiosystems, product number IT6-H52E1) (human, UniProt P06756 31-992; P18564 22-707).
T2 construct: also called histidine-tagged integrin αvβ6; histidine-tagged extracellular domain protein of integrin αvβ6; not shown: linker and basic tail on the β6 chain
T2 sequence (P06756 31-992 limits assumed, chain 1 of 2): as the sequence (P06756 31-992 limits assumed, chain 1 of 2) above
T2 sequence (P18564 22-707 limits assumed, chain 2 of 2): as the sequence (P18564 22-707 limits assumed, chain 2 of 2) above
In words: competition ELISA: integrin αvβ6 coated, peptide RGDS 0-100 µg/mL added together with PSC patient IgG 1:100 (competitor); bound human IgG detected (A450). Here is the method:
A microtiter plate was coated with 100 μL/well of 2 μg/mL integrin αvβ6 overnight at 4° C., and then blocked. Peptide RGDS (SEQ ID NO: 9: Arg-Gly-Asp-Ser) or RGES (SEQ ID NO: 10: Arg-Gly-Glu-Ser) as RGD motif or RGE motif (control) was added together with 100 μL of patient-derived IgG dilution (1:100) to the plate, and the plate was incubated at room temperature for 60 minutes. After washing, 100 μl/well of an HRP-labeled anti-human IgG antibody (50,000-fold dilution; ab6759; Abcam) was added to the plate and the plate was incubated at room temperature for 60 minutes. After washing, the plate was incubated with 3,3′,5,5′-tetramethylbenzidine for 7 minutes, and an absorbance density (OD value) at 450 nm was measured to detect human IgG bound to integrin αvβ6 on the solid phase.
As to B10, the binding result is listed as “binds”.
